Experiment [1] deals with 1VQO_U_ES-ferritin (UniProt Q9ZLI1). In words: native gel or EMSA; blue native (BN) PAGE of the purified nanoparticle, Coomassie blue staining. For orientation: In EMSA bound probe runs differently from free probe, usually more slowly.
Experiment [2] has as its target T1, 1VQO_U_ES-ferritin (UniProt Q9ZLI1).
T1 construct: ferritin subunit beginning at Asp5; 24 copies on the particle; also called E1 nanoparticle antigen; source: HEK293F, transiently expressed, purified (Ni Sepharose excel, SEC); copies: 24
In words: ELISA; HCV antigen coated on 96-well plates overnight at 4 °C; antibody added at a maximum of 2 μg/ml in a 5-fold dilution series, 1 h at RT; detected with peroxidase goat anti-human IgG, read at 450 nm. The note with it: both partners purified.

In turn, “1VQO_U_ES-ferritin (from UniProt Q9ZLI1 5-167)” gave a stoichiometry N with 1VQO_U_ES-ferritin [1] of 24.

B1: human neutralizing antibody IGH526 (antibody, V domains shown)
VH: VQLLEQSGAEVKRPGASVKVSCKASGYTFTSYAIHWVRQAPGQRLEWMGWINPGNGNAKYSQRFQGRVIISRDTSATTSYMELSSLTSEDTAVYSCARDRGFDLLTGHYLGLDPWGQGTLVTVSS
VL: ELTLTQPASASATPGQRVTISCSGSSSNIGGNTVNWYQHLPGAAPKLLIHNNDLRPSGVPDRFSGSKSGTSASLAVSGLQSEDEADYFCAAWDDGLNGWVFGGGTKLTVL
notes: Captured on anti-human Fc biosensors and detected with anti-human IgG, so it carried a human Fc in the assays; also called nAb IGH526
For B1, the binding result in the experiment with 1VQO_U_ES-ferritin [2] is “binds”.

Usually stoichiometry N stands for the number of molecules, sites or subunits per partner or assembly.

The values are drawn from paper PMC4533164, “Approaching rational epitope vaccine design for hepatitis C virus with meta-server and multivalent scaffolding” (Scientific Reports, 2015).
